{
  "source": "patent US20190002841A1",
  "key": {"[1]": {"biological_target": "AAV3B capsid (vector AAV2/3B.CB7.CI.ffluciferase.RBG) (Adeno-associated virus 3B)", "assay": "AVB Sepharose HiTrap column, AAV3B against AAV3B-NKDKLN"}, "[2]": {"biological_target": "AAV3B-NKDKLN capsid (AAV3B with SPAKFA replaced by NKDKLN of AAV9) (Adeno-associated virus 3B)", "assay": "AVB Sepharose HiTrap column, AAV3B against AAV3B-NKDKLN"}, "[3]": {"biological_target": "AAV3B capsid (vector AAV2/3B.CB7.CI.ffluciferase.RBG) (Adeno-associated virus 3B)", "assay": "AVB Sepharose HiTrap column, share washed off in wash 1"}, "[4]": {"biological_target": "AAV3B-NKDKLN capsid (AAV3B with SPAKFA replaced by NKDKLN of AAV9) (Adeno-associated virus 3B)", "assay": "AVB Sepharose HiTrap column, share washed off in wash 1"}, "[5]": {"biological_target": "AAV3B capsid (vector AAV2/3B.CB7.CI.ffluciferase.RBG) (Adeno-associated virus 3B)", "assay": "AVB Sepharose HiTrap column, unbound share in flow-through"}, "[6]": {"biological_target": "AAV3B-NKDKLN capsid (AAV3B with SPAKFA replaced by NKDKLN of AAV9) (Adeno-associated virus 3B)", "assay": "AVB Sepharose HiTrap column, unbound share in flow-through"}, "[7]": {"biological_target": "AAVrh64R1 capsid (vectors AAV2/rh.64R1.CMV.PI.EGFP.WPRE.bGH and rh.64R1 with CB7.CI.ffluciferase.RBG) (Adeno-associated virus rh.64R1)", "assay": "AVB Sepharose HiTrap column, qPCR of fractions; mix rh.64R1+rh.10"}, "[8]": {"biological_target": "AAV3B capsid (vector AAV2/3B.CB7.CI.ffluciferase.RBG) (Adeno-associated virus 3B)", "assay": "AVB Sepharose HiTrap column, share washed off in wash 2 (1 M NaCl)"}, "[9]": {"biological_target": "AAV3B-NKDKLN capsid (AAV3B with SPAKFA replaced by NKDKLN of AAV9) (Adeno-associated virus 3B)", "assay": "AVB Sepharose HiTrap column, share washed off in wash 2 (1 M NaCl)"}, "[10]": {"biological_target": "AAVrh10 capsid (vector AAV2/rh.10.CMV.PI.Cre.RBG) (Adeno-associated virus rh.10)", "assay": "AVB Sepharose HiTrap column, qPCR of fractions; average of two runs"}, "[11]": {"biological_target": "AAV8 capsid (vectors AAV2/8.CMV.ffluciferase.SV40 and AAV8 with CB7.CI.ffluciferase.RBG) (Adeno-associated virus 8)", "assay": "AVB Sepharose HiTrap column, qPCR of fractions; mix AAV8+hu.37+rh.10"}, "[12]": {"biological_target": "AAVhu37 capsid (vector AAV2/hu.37.TBG.EGFP.bGH) (Adeno-associated virus hu.37)", "assay": "AVB Sepharose HiTrap column, qPCR of fractions; mix AAV8+hu.37+rh.10"}, "[13]": {"biological_target": "AAV3B capsid (vector AAV2/3B.CB7.CI.ffluciferase.RBG) (Adeno-associated virus 3B)", "assay": "AVB Sepharose HiTrap column, qPCR of fractions; clarified AAV3B product"}, "[14]": {"biological_target": "AAV8 capsid (vectors AAV2/8.CMV.ffluciferase.SV40 and AAV8 with CB7.CI.ffluciferase.RBG) (Adeno-associated virus 8)", "assay": "AVB Sepharose HiTrap column, clarified supernatant, wild type against SPAKFA mutant"}, "[15]": {"biological_target": "AAV8-SPAKFA capsid (AAV8 with NQSKLN replaced by SPAKFA) (Adeno-associated virus 8)", "assay": "AVB Sepharose HiTrap column, clarified supernatant, wild type against SPAKFA mutant"}, "[16]": {"biological_target": "AAV9 capsid (vector with CB7.CI.ffluciferase.RBG) (Adeno-associated virus 9)", "assay": "AVB Sepharose HiTrap column, clarified supernatant, wild type against SPAKFA mutant"}, "[17]": {"biological_target": "AAV9-SPAKFA capsid (AAV9 with NKDKLN replaced by SPAKFA) (Adeno-associated virus 9)", "assay": "AVB Sepharose HiTrap column, clarified supernatant, wild type against SPAKFA mutant"}, "[18]": {"biological_target": "AAVrh64R1 capsid (vectors AAV2/rh.64R1.CMV.PI.EGFP.WPRE.bGH and rh.64R1 with CB7.CI.ffluciferase.RBG) (Adeno-associated virus rh.64R1)", "assay": "AVB Sepharose HiTrap column, clarified supernatant, wild type against SPAKFA mutant"}, "[19]": {"biological_target": "rh.64R1-SPAKFA capsid (rh.64R1 with NQAKLN replaced by SPAKFA) (Adeno-associated virus rh.64R1)", "assay": "AVB Sepharose HiTrap column, clarified supernatant, wild type against SPAKFA mutant"}},
  "data": [
    {"substance": "AVB Sepharose High Performance affinity resin ligand (14 kD fragment from a single chain llama antibody expressed in yeast) (VHH)", "values": [
      {"measurement": "elution fraction yield (%)", "setting": "[1]", "result": 98, "unit": "%"},
      {"measurement": "elution fraction yield (%)", "setting": "[2]", "result": 87, "unit": "%"},
      {"measurement": "% of vector in the wash 1 (W1) fraction", "setting": "[3]", "result": 0, "unit": "%"},
      {"measurement": "% of vector in the wash 1 (W1) fraction", "setting": "[4]", "result": 0.1, "unit": "%"},
      {"measurement": "% of vector in the flow-through (FT) fraction", "setting": "[5]", "result": 1.3, "unit": "%"},
      {"measurement": "% of vector in the flow-through (FT) fraction", "setting": "[6]", "result": 8.2, "unit": "%"},
      {"measurement": "% of loaded vector genome in the elution fraction", "setting": "[7]", "result": 22, "unit": "%"},
      {"measurement": "% of vector in the wash 2 (W2) fraction", "setting": "[8]", "result": 0.3, "unit": "%"},
      {"measurement": "% of vector in the wash 2 (W2) fraction", "setting": "[9]", "result": 4.6, "unit": "%"},
      {"measurement": "% of loaded vector genome in the elution fraction", "setting": "[10]", "result": 84, "unit": "%"},
      {"measurement": "% of loaded vector genome in the elution fraction", "setting": "[11]", "result": 20, "unit": "%"},
      {"measurement": "% of loaded vector genome in the elution fraction", "setting": "[12]", "result": 82, "unit": "%"},
      {"measurement": "% of vector genomes recovered in the elution fraction", "setting": "[13]", "result": 98, "unit": "%"},
      {"measurement": "% recovery of loaded vector in the elution fraction (of total fractions)", "setting": "[14]", "result": 30, "unit": "%"},
      {"measurement": "% recovery of loaded vector in the elution fraction (of total fractions)", "setting": "[15]", "result": 93, "unit": "%"},
      {"measurement": "% recovery of loaded vector in the elution fraction (of total fractions)", "setting": "[16]", "result": 0.6, "unit": "%"},
      {"measurement": "% recovery of loaded vector in the elution fraction (of total fractions)", "setting": "[17]", "result": 51, "unit": "%"},
      {"measurement": "% recovery of loaded vector in the elution fraction (of total fractions)", "setting": "[18]", "result": 18, "unit": "%"},
      {"measurement": "% recovery of loaded vector in the elution fraction (of total fractions)", "setting": "[19]", "result": 91, "unit": "%"}
    ]}
  ]
}
